The series in a line: soluble on expression in E. coli; label from the status in PepcDB or PDB records.
For “MPLIFAPFAADLARRAAALMPIDVLEIAAGTGAVTREMIPRLLPAAHYVVTDLNQPMLDFAAAQQAPDNRIKWRQADAQLLPFENAVFDLVFCQFGAMFFNDRLSAYREAKRVLKPGGHYLFNVWDRIEENHFADDVTNALAGLFPDDPPRFMARTPHGYHDTVLIRRELENAGFSRVTVETVAAQSRAPSPRIPAVAYCQGTVLRTEIEARAPGKLNAATDCAAAAIEARHGKGEVAAKIKAHVILAAV”, the “soluble on expression in E. coli” value is “not soluble”.

For the sequence “MTIFQFPQDFMWGTATAAYQIEGAYQEDGRGLSIWDTFAHTPGKVFNGDNGNVACDSYHRYEEDIRLMKELGIRTYRFSVSWPRIFPNGDGEVNQEGLDYYHRVVDLLNDNGIEPFCTLYHWDLPQALQDAGGWGNRRTIQAFVQFAETMFREFHGKIQHWLTFNEPWCIAFLSNMLGVHAPGLTNLQTAIDVGHHLLVAHGLSVRRFRELGTSGQIGIAPNVSWAVPYSTSEEDKAACARTISLHSDWFLQPIYQGSYPQFLVDWFAEQGATVPIQDGDMDIIGEPIDMIGINYYSMSVNRFNPEAGFLQSEEINMGLPVTDIGWPVESRGLYEVLHYLQKYGNIDIYITENGACINDEVVNGKVQDDRRISYMQQHLVQVHRTIHDGLHVKGYMAWSLLDNFEWAEGYNMRFGMIHVDFRTQVRTPKESYYWYRNVVSNNWLETRR”, the “soluble on expression in E. coli” value was “soluble”.

On to “MGSDKIHHHHHHMKIAVVGGTFWDIFIFGENPHSSTIRESPGGSGLNVAYGLFLLGHTVDFYSNIGDDWRGKQIVELLEKASFDTSHMSTIQGGKTGIFIAHNDKPLAVDPGVNRKEMKLPSLSEYDLVFVTGEIPEKTIRKICENTKNVILDVGPGARFDTSDLNALVIGNERECSFRKCDVVKMGSKGARWGEVYVPGNGISYPHSIGLGDLFDIVFVHHLPLGKSKKEILEEAVKCSQILGQKENVTPFERISFLEPLSTKDDTLECPDESKDASHHGG”, for which the “soluble on expression in E. coli” value was “not soluble”.

As to “MGSDKIHHHHHHMGVEHMRGFSNEIILKRTLTLSDFTLRYHKRGITALQVIKAPSVSNVPVLLSGDNYGYFVMWDLVTKRPITHIEIEGNSHIIAFWWVETTNVLYILSKDSMLRIFELDSSTQLSIDLVRKLSQANKTDHLQWTKIYEMPINTLNFANFIIEAEVKPTKDNKSYRLVCCHTDDSETIDIYQIIEDSTFKLKRPFNNINFPRFLKQQNFLGISKDSKFGIIMRFAKLNDVIFLGYENGFVVGFKITFDEGLQRDIAELVHVSNDHYPNPILDMCVSGDELYSCSTDDFITKYKIPVNLQLETKYLRDDALLIKCPSSLRVSEPSKVHLPLKNIGHIDKVKDDYLVVSSWSGMTIVYNMRTSEVEQTFVKSKNNLVVSDSSMGDLTNGSGSNTESSSKSHNYKVGAMTCLESFDVQSDGLRLGQLRRIKALAKCNWCLIGYEDGTIKLNKI”, the “soluble on expression in E. coli” value was “not soluble”.

“AIAVQKLENIPALVHLKEKNIISIRVFLQGRSIVGIQLNYNDNEDGQVYGSTAGKEMVARLSKEEHIIGVEGTYNPSALTQIIFTTNQPRQLMVGYHVGNYQYSSYPDDPSLVLKGACVSWRAGGIKSILFLWGSENSSCVKYGHSG”: the “soluble on expression in E. coli” value is “soluble”.

“MSLTEAGDSEGEQSYFVSTPDEYPGGHDREDDGSVYGQIHIEEESTIRYSWQDEIAQGTWRRKMRGDVGGEKPVKVLEVPALSLGGAIGSAHLKEEASGELRAEPTVIEKEIKIPHEFHTSIKGVFSSEPRHQLVEVIGQLEETLPERMKEELSALTRQSQGESGSVSVDVKKVQSAAGGSVTLMAEVNLSQTVDADQLDLEQLSRDEAGEIERAVESVVRESLAKRSSPVPRSEGHHHHHH”: the “soluble on expression in E. coli” value is “soluble”.

As for “DKVSLKLPKSNGELFEFKWLDHKIAYIALNGFHDKKILQDFNDVYDEIKQSRGLIIDLRFNGGGNSSIAAEILSHFTNKGLEGSIWKNRKHIAAFKAWGNYSGKYKIYAQDNAWESGAMESLKAKENSHIVPTYVLIGRNTASAAEDFLIYADKLKHFTTLGENTYGSTGQPIFFDLPGGGSFRICTKRDTYPDGREFVGYGITPQVIIDRMPEHLRSEKDIVLYSAIKKLKEKI”, the “soluble on expression in E. coli” value is “not soluble”.

(Values after the DeepSol protein solubility set.)
